This data set concerns the molecule itself. Nature of the data set: crystal structure; in meso crystals from 10 wt% DSPG/MP swollen mesophase, 20 °C, 0.2 M (NH4)SO4, 0.02 M NaCl, 0.02 M Na acetate pH 4, 33% v/v PEG200; molecular replacement with 4HFI and 4NPQ; 6 Å; closed state.

These results are taken from paper PMC5803273, “Design of ultra-swollen lipidic mesophases for the crystallization of membrane proteins with large extracellular domains” (Nature Communications, 2018).

B1: Gloeobacter violaceus ligand-gated ion channel (GLIC) (natural protein)
chain: VSPPPPIADEPLTVNTGIYLIECYSLDDKAETFKVNAFLSLSWKDRRLAFDPVRSGVRVKTYEPEAIWIPEIRFVNVENARDADVVDISVSPDGTVQYLERFSARVLSPLDFRRYPFDSQTLHIYLIVRSVDTRNIVLAVDLEKVGKNDDVFLTGWDIESFTAVVKPANFALEDRLESKLDYQLRISRQYFSYIPNIILPMLFILFISWTAFWSTSYEANVTLVVSTLIAHIAFNILVETNLPKTPYMTYTGAIIFMIYLFYFVAVIEVTVQHYLKVESQPARAASITRASRIAFPVVFLLANIILAFLFF
notes: GLIC, Gloeobacter violaceus ligand-gated ion channel; expressed from pET20-MBP-thrombin-GLIC (N-terminal signal peptide, MBP, thrombin site, GLIC); MBP removed by thrombin; the pentamer is printed as 174 kDa, 1585 amino acids (317 per chain); also called Gloeobacter ligand-gated ion channel; GLIC pentamer; not shown: MBP, N-terminal, cleaved
As for B1, the “stoichiometry N” value came to 5.
